The source of these data is patent US20240182592A1 (CHIA TAI TIANQING PHARMACEUTICAL GROUP, published 2024).

Where a chain is given by its changes, count along the chain named.

Test [1] deals with T1, human BCMA-His (ACRO, product catalog No. BCA-H522y) (human, UniProt Q02223 1-54, biotin-conjugated in the ELISAs of Examples 5 and 6.1 (site not stated)).
T1 construct: Bought protein; also called BCMA-His protein; biotin-conjugated recombinant BCMA-His protein; not shown: His tag
T1 sequence (looked up): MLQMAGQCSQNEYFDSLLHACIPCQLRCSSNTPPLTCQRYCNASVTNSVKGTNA
In words: competitive ELISA: antibody blocks binding of biotin-BCMA-His to coated APRIL. The method, then: The plate was incubated at 37° C. for 1 h and then washed to remove unbound biotin-conjugated recombinant BCMA-His protein. HRP-conjugated streptavidin (eBioscience, product catalog No. 18-4100-51) was added, and the plate was washed 5 times and then subjected to color development. The light absorption signal values at the wavelength of 450 nm and the reference wavelength of 650 nm were measured.
In general terms: In an ELISA, binding on a coated surface is turned into a signal by an enzyme label.

Test [2] addresses T1, human BCMA-His (ACRO, product catalog …). In words: competition ELISA (chessboard), biotin-BCMA-His; competitor: 1A10-Fc. The method, then:
(§1) The anti-human BCMA VHH-Fc chimeric antibodies were diluted to 2 μg/mL and allowed to coat a high-adsorption microplate. The plate was washed and then blocked. […] According to a chessboard arrangement, the incubated mixtures of antigen and antibody or the biotin-conjugated BCMA-His protein alone (control group) were added in sequence to the well plate at 100 μL/well. The plate was incubated at 37° C. for 1 h. The plate was washed to remove unbound biotin-conjugated recombinant BCMA-His protein. HRP-conjugated streptavidin (eBioscience, product catalog No. 18-4100-51) was added, and the plate was washed 5 times and then subjected to color development. The light absorption signal values at the wavelength of 450 nm and the reference wavelength of 650 nm were measured. The blocking rate of one antibody for the binding signal of another antibody to BCMA-Bio was calculated according to the formula blocking rate=(signal value of control group−signal value of sample group)/signal value of control group×100%. Positive control groups in which antibodies competed with themselves are shown on the diagonal line “\” of the chessboard (indicated in gray).

The target is the same in test [3]. As to the kind of experiment: competition ELISA (chessboard), biotin-BCMA-His; competitor: 1A11-Fc. The method, then: as §1
Test [4] has as its target T2, human BCMA on cells (human, UniProt Q02223 1-184).
T2 construct: whole, on cells; also called CHO-hBCMA cells; U266 cells
T2 sequence (looked up): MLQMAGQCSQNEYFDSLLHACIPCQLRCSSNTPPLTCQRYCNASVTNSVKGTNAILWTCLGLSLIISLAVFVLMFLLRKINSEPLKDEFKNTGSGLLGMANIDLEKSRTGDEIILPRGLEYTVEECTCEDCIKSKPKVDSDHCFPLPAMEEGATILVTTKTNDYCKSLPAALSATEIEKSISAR
In words: flow cytometry, U266 cells. The source says:
(§2) The binding of the anti-human BCMA VHH-Fc chimeric antibodies to target cells with different BCMA expression levels was detected by flow cytometry. The CHO-hBCMA cells (iCarTab Biotechnology (Suzhou) Co. Ltd., product catalog No. AKD001A) were a stably transfected cell line highly expressing BCMA. The U266 cells (Cell Culture Center, Institute of Basic Medical Sciences, Chinese Academy of Medical Sciences, product catalog No. 3111C0001CCC000684) were a natural human myeloma cell line expressing BCMA at medium levels. The PRMI8226 cells (Cell Culture Center, Institute of Basic Medical Sciences, Chinese Academy of Medical Sciences, product catalog No. 3111C0001CCC000083) were a natural human myeloma cell line expressing BCMA at low levels. The HUVEC cells (ScienCell Research Laboratories, product catalog No. […] 8000) were a human umbilical vein endothelial cell line not expressing BCMA. […] A PE-labeled anti-human IgG Fc antibody (Jackson Immuno Rescarch, product catalog No. 109-116-170) was added, and the mixture was incubated on ice for 0.5 h. The cells were washed and then tested using a flow cytometer (Thermo Fisher Scientific Inc., Attune NXT).
A general note: In flow cytometry, cells or beads pass a laser one at a time.

For test [5], the target named is T2, human BCMA on cells. In words: flow cytometry, CHO-hBCMA cells.
Text: as §2

Another test concerns the target T3, human TACI protein (human, UniProt O14836 2-166, limits assumed).
T3 sequence (looked up): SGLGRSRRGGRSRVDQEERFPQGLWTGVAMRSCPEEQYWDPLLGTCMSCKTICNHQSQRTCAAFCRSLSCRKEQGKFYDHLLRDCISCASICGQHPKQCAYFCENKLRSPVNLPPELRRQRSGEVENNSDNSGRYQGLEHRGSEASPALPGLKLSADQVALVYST
As to the kind of experiment: SPR (Biacore T200), antibody captured by anti-hIgG (Fc). The protocol: (§3) The anti-human BCMA VHH-Fc chimeric antibodies were tested for specificity using a biomolecular interaction analysis system (GE, Biacore T200). An anti-hIgG (Fc) antibody (GE, product catalog No. BR-1008-39) was amino-coupled to a CM5 sensor chip. The anti-human BCMA VHH-Fc chimeric antibodies were diluted to 2 μg/mL with a running buffer (137 mM NaCl, 2.7 mM KCl, 10 mM Na₂HPO₄.12H₂O, 1.8 mM KH₂PO₄, 0.05% surfactant P-20 (w/v), pH 7.4), and capture was allowed for 90 s by passing the dilutions through experimental channels at a flow rate of 30 μL/min. Human TACI or BAFF-R protein was diluted to 100 nM with the running buffer, and binding was allowed by passing the dilution at a flow rate of 50 μL/min. The binding signal curve was observed.

The target in a further test is human BAFF-R protein (human, UniProt Q96RJ3 7-71, limits assumed). Described as above. The protocol: as §3
The target of test [6] is T1, human BCMA-His (ACRO, product catalog …). In words: competition ELISA (chessboard), biotin-BCMA-His; competitor: 1B10-Fc. The method, then: as §1
For test [7], the target named is cynomolgus monkey BCMA protein (cynomolgus monkey, UniProt A0A2K5UD97 1-53). As to the kind of experiment: SPR (Biacore T200). (Surface plasmon resonance follows binding to a sensor surface in real time, without labels.)
In test [8] the target is T1, human BCMA-His (ACRO, product catalog …). As to the kind of experiment: competition ELISA (chessboard), biotin-BCMA-His; competitor: 1A1-Fc. The method, then:
as §1

Test [9] concerns the target T4, cynomolgus monkey BCMA on transiently transfected HEK293T cells (cynomolgus monkey, UniProt Q02223 1-184 (human entry)).
T4 construct: it may be a nucleotide entry; also called HEK293T-CynoBCMA
As to the kind of experiment: flow cytometry, HEK293T cells transiently transfected with cynomolgus monkey BCMA. The text has this: The cells were washed and then tested using a flow cytometer (Thermo Fisher Scientific Inc., Attune NXT).

In a further test the target is T5, human BCMA protein (human, UniProt Q02223 1-54, limits assumed).
T5 construct: also called hBCMA; Antigen BCMA
T5 sequence (looked up): T1 sequence (looked up)
In words: SPR (Biacore T200), antibody captured by anti-hIgG, human BCMA as analyte, 1:1 model. The protocol:
The affinity of the test antibody for human BCMA protein was determined by Biacore T200 (GE) as follows:
The response signals were detected in real time using Biacore software, and association and dissociation curves were obtained. The buffer used in the experiment was Biacore universal buffer (137 mM NaCl, 2.7 mM KCl, 10 mM Na₂HPO₄.12H₂O, 1.8 mM KH₂PO₄, 0.05% surfactant P-20 (w/v), pH 7.4). […] The flow rate in the flow cell was at 50 μL/min, the association was performed for 240 s, the dissociation was performed for 1400 s, the regeneration was performed using 3 M MgCl₂ (GE) for 60 s, and the baseline was stable. Results were obtained by calculation according to the affinity and kinetics 1:1 binding mode in biacore evaluation software.

Chain of human BAFF-R protein (Q96RJ3 7-71 limits assumed): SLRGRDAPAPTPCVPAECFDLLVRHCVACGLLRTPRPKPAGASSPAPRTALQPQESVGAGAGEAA
Chain of cynomolgus monkey BCMA protein (A0A2K5UD97 entry or part of it limits assumed): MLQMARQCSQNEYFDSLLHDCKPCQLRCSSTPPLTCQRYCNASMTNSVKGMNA
T4 sequence (Q02223 other isoform, or with tags, fused parts or gaps): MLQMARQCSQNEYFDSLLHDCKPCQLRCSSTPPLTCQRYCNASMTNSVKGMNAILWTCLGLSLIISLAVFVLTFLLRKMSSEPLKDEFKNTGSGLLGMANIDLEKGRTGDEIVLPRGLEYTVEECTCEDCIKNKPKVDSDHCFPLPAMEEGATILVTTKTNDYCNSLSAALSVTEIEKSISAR

B1: 1A1-Fc (antibody, human IgG1, V domains shown)
VH: QVQLVESGGGSVQAGGSLRLSCTASGYTFRGWNKHWYRQAPGKERELVSSIFRDGKTAYTDSVKGRFTISQDNADATVYLQMNSLKPEDTAMYYCKYDLPGSGLPAFWGQGTLVTVSS
notes: Camel VHH fused to human IgG1 Fc; also called anti-human BCMA VHH-Fc chimeric antibody 1A1-Fc
Broadly, the IC50 is the concentration at which inhibition is half-maximal. For orientation: EC50 means the concentration at which the effect is half-maximal. The molecule B1 registered a concentration for half-maximal inhibition (IC50) in [1] of 0.34 nM. Moreover, the blocking rate came to 7.6% in test [2], 99.4% in test [3] and 101% in [6]. Besides, the results for the EC50 with human BCMA on cells [4] and with human BCMA on cells [5] were 2.77 nM and 3.04 nM, respectively. Also, the binding result was “no binding (tested: 100 nM)” with human TACI protein, “no binding (tested: 100 nM)” in the test with human BAFF-R protein and “no binding” in test [7].

B2: 1B10-Fc (antibody, human IgG1, V domains shown)
VH: B1 VH with Q1E, N73S, A106E
notes: Camel VHH fused to human IgG1 Fc; also called anti-human BCMA VHH-Fc chimeric antibody 1B10-Fc
Molecule B2 returned an IC50 in test [1] of 0.26 nM. In addition, the values for the blocking rate in test [2], in [3] and in test [8] were 26.7%, 99.5% and 100%, respectively. The figures for the EC50 with human BCMA on cells [4] and with human BCMA on cells [5] were 1.72 nM and 2.51 nM, respectively. Also, the binding result with human TACI protein is reported as “no binding (tested: 100 nM)”; with human BAFF-R protein, “no binding (tested: 100 nM)”; in test [7], “no binding”.

B3: 1A11-Fc (antibody, human IgG1, V domains shown)
VH: QVQLVESGGGSVQAGGSLRLSCAASGVTFNSACMGWFRQAPGKEREGVARIETGYGGTVYADSVKGRFTISRDNAKNTVYLQMNSLKPEDTAMYYCAAKRSWCTPTWWHELDYNYWGQGTQVTVSS
notes: also called anti-human BCMA VHH-Fc chimeric antibody 1A11-Fc
Usually Kd stands for the free concentration of one partner at which half of the binding sites on the other are occupied at equilibrium, for simple one-to-one binding. As for B3, the EC50 in test [9] was 10.4 nM; with human BCMA on cells [4], 1.26 nM; with human BCMA on cells [5], 2.08 nM. The molecule further showed a half-maximal inhibitory concentration (IC50) in [1] of 0.76 nM. The blocking rate stood at 21.6% in test [2], 101% in test [8] and 99.4% in test [6]. In addition, in the test with human BCMA protein, the Kd was 3.96 nM. In addition, the binding result in the test with human TACI protein and with human BAFF-R protein was “no binding (tested: 100 nM)” each time.

B4: 1A10-Fc (antibody, human IgG1, V domains shown)
VH: QVQLVESGGGSVQAGGSLRLSCAASGYSSNVACMAWYRQAPGKEREWVATIVADFGTTNYAASVKGRFTISQDNAKNTVYLQMNSLKPEDSAMYYCAATQRGGIDWCDEINYWGQGTLVTVSS
notes: also called anti-human BCMA VHH-Fc chimeric antibody 1A10-Fc
Regarding B4, the EC50 in [9] is 2.02 nM; in the test with human BCMA on cells [4], 4.64 nM; with human BCMA on cells [5] it was 4.28 nM. Also, the IC50 in test [1] was 0.41 nM. Further, the blocking rate in test [3] turned out to be 32.6%; in test [8] it was 36.9%; in test [6], 46.4%. Moreover, the dissociation constant Kd with human BCMA protein was 0.94 nM. The binding result in the test with human TACI protein and with human BAFF-R protein was “no binding (tested: 100 nM)” in each case.
